Assays:
AAV9 viral particles [1] = molecular target: T1, AAV9 viral particles (adeno-associated virus 9); experiment: SPR (Biacore 8K+), fusion protein amine-coupled to CM5, AAV9 2E12 vp/ml; response normalized to vh118
AAV9 viral particles [2] = molecular target: T1, AAV9 viral particles; experiment: SPR (Biacore), polypeptide amine-coupled to CM5, AAV9 analyte; response normalized to SEQ ID NO:80
AAV9 viral particles [3] = molecular target: T1, AAV9 viral particles; experiment: SPR (Biacore 8K+), fusion protein amine-coupled to CM5, AAV9 2E12 vp/ml, report point late binding
AAV9 viral particles [4] = molecular target: T1, AAV9 viral particles; experiment: SPR (Biacore), polypeptide amine-coupled to CM5, AAV9 analyte; response normalized to SEQ ID NO:80; remark: listed apart in the source
AAV9 viral particles [5] = molecular target: T1, AAV9 viral particles; experiment: as above; remark: listed apart in the source

Row | Binder | Normalized AAV9 binding capacity (%) (AAV9 viral particles [2]) | further results
1 | vh428 (SEQ ID NO:146) fused to SEQ ID NO:160, Example 5 (VHH) chain (part 1 of 2): QVQLQQSGGGSVQAGGSLRLSCTISGRTLSDFTMAWFRQRPGKEREFVAAISWSGAYTYYADSVKGRFTISRDNAKNTVYLQMNSLKPEDTAVYYCAAGPTGLLSRKTTPADYQYWGQGTQVTVSS chain (part 2 of 2): not shown |  | Normalized AAV9 binding capacity (%) (AAV9 viral particles [1]): 108%
2 | vh248 (SEQ ID NO:90) (VHH) VHH: QVQLEQSGGGSVQAGGSLRLSCTISGRTLSDYTMGWFRQRPGKEREFVAAISWSGAYTKYADSVKGRFTISRDNAKNTVYLQMNSLKPEDTAVYYCAAGPTGLLSKKATPADYDYWGQGTQVTVSS | 105 | 
3 | Candidate 4A-3: vh118 fusion protein (SEQ ID NO:162) (VHH) VHH: QVQLQQSGGGSVQAGGSLRLSCTISGRTLSDYTMGWFRQRPGKEREFVAAISWSGAYTKYADSVKGRFTISRDNAKNTVYLQMNSLKPEDTAVYYCAAGPTGLLSKKATPADYDYWGQGTQVTVSS |  | Binding capacity AAV9 (2E12 vp/ml) (RU) (AAV9 viral particles [3]): 12400 RU
4 | vh250 (SEQ ID NO:92) (VHH) VHH: QVQLQQSGGGSVQSGGSLRLSCTISGRTLSDYTMGWFRQRPGKEREFVAAISWSGAYTKYADSVKGRFTISRDNAKNTVYLQMNSLKPEDTAVYYCAAGPTGLLSKKATPADYDYWGQGTQVTVSS | 96 | 
5 | vh254 (SEQ ID NO:97) (VHH) VHH: QVQLQQSGGGSVQAGGSLRLSCSISGRTLSDYTMGWFRQRPGKEREFVAAISWSGAYTKYADSVKGRFTISRDNAKNTVYLQMNSLKPEDTAVYYCAAGPTGLLSKKATPADYDYWGQGTQVTVSS | 73 | 
6 | vh251 (SEQ ID NO:93) (VHH) VHH: QVQLQQSGGGSVQTGGSLRLSCTISGRTLSDYTMGWFRQRPGKEREFVAAISWSGAYTKYADSVKGRFTISRDNAKNTVYLQMNSLKPEDTAVYYCAAGPTGLLSKKATPADYDYWGQGTQVTVSS | 99 | 
7 | vh256 (SEQ ID NO:100) (VHH) VHH: QVQLQQSGGGSVQAGGSLRLSCTVSGRTLSDYTMGWFRQRPGKEREFVAAISWSGAYTKYADSVKGRFTISRDNAKNTVYLQMNSLKPEDTAVYYCAAGPTGLLSKKATPADYDYWGQGTQVTVSS | 102 | 
8 | vh255 (SEQ ID NO:99) (VHH) VHH: QVQLQQSGGGSVQAGGSLRLSCTSSGRTLSDYTMGWFRQRPGKEREFVAAISWSGAYTKYADSVKGRFTISRDNAKNTVYLQMNSLKPEDTAVYYCAAGPTGLLSKKATPADYDYWGQGTQVTVSS | 103 | 
9 | vh252 (SEQ ID NO:94) (VHH) VHH: QVQLQQSGGGSVQAGGSLKLSCTISGRTLSDYTMGWFRQRPGKEREFVAAISWSGAYTKYADSVKGRFTISRDNAKNTVYLQMNSLKPEDTAVYYCAAGPTGLLSKKATPADYDYWGQGTQVTVSS | 92 | 
10 | vh118 (SEQ ID NO:80), Example 3 construct (VHH) VHH: QVQLQQSGGGSVQAGGSLRLSCTISGRTLSDYTMGWFRQRPGKEREFVAAISWSGAYTKYADSVKGRFTISRDNAKNTVYLQMNSLKPEDTAVYYCAAGPTGLLSKKATPADYDYWGQGTQVTVSS | 100 | Normalized AAV9 binding capacity (%) (AAV9 viral particles [4]): 100%; Normalized AAV9 binding capacity (%) (AAV9 viral particles [5]): 100%
11 | vh344 (SEQ ID NO:98) (VHH) VHH: QVQLQQSGGGSVQAGGSLRLSCAISGRTLSDYTMGWFRQRPGKEREFVAAISWSGAYTKYADSVKGRFTISRDNAKNTVYLQMNSLKPEDTAIYYCAAGPTGLLSKKATPADYDYWGQGTQVTVSS | 100 | Normalized AAV9 binding capacity (%) (AAV9 viral particles [5]): 100%
12 | vh332 (SEQ ID NO:96) (VHH) VHH: QVQLQQSGGGSVQAGGSLRLSCVISGRTLSDYTMGWFRQRPGKEREFVAAISWSGAYTKYADSVKGRFTISRDNAKNTVYLQMNSLKPEDTAVYYCAAGPTGLLSKKATPADYDYWGQGTQVTVSS | 98 | 
13 | vh118 (SEQ ID NO:80) fused to SEQ ID NO:160, Example 5 (VHH) chain (part 1 of 2): QVQLQQSGGGSVQAGGSLRLSCTISGRTLSDYTMGWFRQRPGKEREFVAAISWSGAYTKYADSVKGRFTISRDNAKNTVYLQMNSLKPEDTAVYYCAAGPTGLLSKKATPADYDYWGQGTQVTVSS chain (part 2 of 2): not shown |  | Normalized AAV9 binding capacity (%) (AAV9 viral particles [1]): 100%
14 | vh359 (SEQ ID NO:145) fused to SEQ ID NO:160, Example 5 (VHH) chain (part 1 of 2): QVQLVESGGGSVQAGGSLSLSCTISGRTLSDFTMAWFRQRPGKEREFVAAISWSGAYTYYTDSVKGRFTISRDNAKNTVYLQMQSLKPEDTAVYYCAAGPTGLLSRKTTPADYQYWGQGTQVTVSS chain (part 2 of 2): not shown |  | Normalized AAV9 binding capacity (%) (AAV9 viral particles [1]): 86.4%
15 | vh253 (SEQ ID NO:95) (VHH) VHH: QVQLQQSGGGSVQAGGSLSLSCTISGRTLSDYTMGWFRQRPGKEREFVAAISWSGAYTKYADSVKGRFTISRDNAKNTVYLQMNSLKPEDTAVYYCAAGPTGLLSKKATPADYDYWGQGTQVTVSS | 86 | 
16 | vh374 (SEQ ID NO:144) fused to SEQ ID NO:160, Example 5 (VHH) chain (part 1 of 2): QVQLQQSGGGSVQAGGSLRLSCTSSGRTLSDFTMAWFRQRPGRAREFVAAISWSGAYTYYTDSVKGRFTISRDNAKNTVFLQMQSLKPEDTAIYYCAAGPTGLLSRKTTPADYQYWGQGTQVTVSS chain (part 2 of 2): not shown |  | Normalized AAV9 binding capacity (%) (AAV9 viral particles [1]): 102%
17 | vh249 (SEQ ID NO:91) (VHH) VHH: QVQLQESGGGSVQAGGSLRLSCTISGRTLSDYTMGWFRQRPGKEREFVAAISWSGAYTKYADSVKGRFTISRDNAKNTVYLQMNSLKPEDTAVYYCAAGPTGLLSKKATPADYDYWGQGTQVTVSS | 86 | 
18 | Candidate 4A-1: vh342 fusion protein (SEQ ID NO:163) (VHH) VHH: QVQLQESGGGLVQPGGSLRLSCAASGRTLSDYTMGWFRQAPGKQREFVAAISWSGAYTKYTDSVKGRFTISRDNAKTTVYLQMNSLKPEDTAVYYCAAGPTGLLSKKATPADYDYWGQGTQVTVSS |  | Binding capacity AAV9 (2E12 vp/ml) (RU) (AAV9 viral particles [3]): 9920 RU
19 | Candidate 4A-2: vh343 fusion protein (SEQ ID NO:164) (VHH) VHH: EVQLVESGGGLVQAGGSLRLSCAASGRTLSDYTMGWFRQAPGKEREFVVAISWSGAYTKYADSVKGRFTISRDNAKNTMYLQMNSLKPEDTAVYYCAAGPTGLLSKKATPADYDYWGQGTQVTVSS |  | Binding capacity AAV9 (2E12 vp/ml) (RU) (AAV9 viral particles [3]): 12400 RU

From patent EP4541814A1 (Cytiva BioProcess R&D AB, dated 2025)
